# Measured values taken from paper PMC4853763.
# Target: E6/e6ap complex with the wt e6ap(1-16) peptide construct (HPV16 | human) (UniProt P03126)
# Assay: ITC
substance,measurement,value
p53 core (DNA binding) domain (from UniProt P04637 94-311) (domain or fragment),dH,-19.1 kcal/mol
same,stoichiometry N,0.516
